Test results reported in patent US20170101477A1.

Columns and labels:
[1] = biological target: human LEPR CRH2-MMH (human) (UniProt P48357); experiment: Luminex, myc-captured LEPR protein
[2] = biological target: human LEPR CRH1-Ig (D2,D3)-MMH (human) (UniProt P48357); experiment: Luminex, myc-captured LEPR protein
[3] = biological target: human LEPR FNIII-MMH (human) (UniProt P48357); experiment: Luminex, myc-captured LEPR protein
[4] = biological target: human LEPR CRH1 (D1,D2)-MMH (human) (UniProt P48357); experiment: Luminex, myc-captured LEPR protein
[5] = biological target: human LEPR CRH1 (D1,D2,D3)-MMH (human) (UniProt P48357); experiment: Luminex, myc-captured LEPR protein
[6] = biological target: human LEPR extracellular domain expressed with a C-terminal myc-myc-hexahistidine tag (hLEPR.mmh) (human) (UniProt P48357); experiment: Luminex, myc-captured LEPR protein
[7] = biological target: human LEPR Ig-CRH2-FNIII-MMH (human) (UniProt P48357); experiment: Luminex, myc-captured LEPR protein
[8] = biological target: human LEPR CRH1 (D1)-MMH (human) (UniProt P48357); experiment: Luminex, myc-captured LEPR protein
[9] = biological target: human LEPR Ig (D3)-MMH (human) (UniProt P48357); experiment: Luminex, myc-captured LEPR protein
[10] = biological target: extracellular domain portion of LEPR protein expressed with a C-terminal human Fc tag (hLEPR.hFc) (human); experiment: ELISA, 500 nM Ab, 10 nM hLEPR.hFc to coated hLeptin
[11] = biological target: Mycx2-hLepR(ecto)-GPI anchored, on HEK293/hLEPR-GPI cells (human) (UniProt P48357); experiment: FACS, 10 nM Ab, HEK293/hLEPR-GPI, no added Leptin
[12] = biological target: Mycx2-hLepR(ecto)-GPI anchored, on HEK293/hLEPR-GPI cells (human) (UniProt P48357); experiment: FACS, 10 nM Ab, HEK293/hLEPR-GPI, 1 uM Leptin
[13] = biological target: full length human LEPR (amino acids 1-1165 of P48357, Isoform B), on cells (human) (UniProt P48357); experiment: FACS, 70 nM Ab, HEK293/Stat3-luc/hLEPR-FL
[14] = biological target: Mycx2-hLepR(ecto)-GPI anchored, on HEK293/hLEPR-GPI cells (human) (UniProt P48357); experiment: FACS, 70 nM Ab, HEK293/hLEPR-GPI
[15] = biological target: human LEPR extracellular domain expressed with a C-terminal mouse IgG2a Fc tag (hLEPR.mFc) (human); experiment: SPR, mAb captured, 37C
[16] = biological target: human LEPR extracellular domain expressed with a C-terminal myc-myc-hexahistidine tag (hLEPR.mmh) (human) (UniProt P48357); experiment: SPR, mAb captured, 37C
[17] = biological target: macaca fascicularis LEPR extracellular domain expressed with a C-terminal myc-myc-hexahistidine tag (mfLEPR.mmh) (Macaca fascicularis); experiment: SPR, mAb captured, 37C
[18] = biological target: human LEPR extracellular domain expressed with a C-terminal mouse IgG2a Fc tag (hLEPR.mFc) (human); experiment: SPR, mAb captured, 25C
[19] = biological target: human LEPR extracellular domain expressed with a C-terminal myc-myc-hexahistidine tag (hLEPR.mmh) (human) (UniProt P48357); experiment: SPR, mAb captured, 25C
[20] = biological target: macaca fascicularis LEPR extracellular domain expressed with a C-terminal myc-myc-hexahistidine tag (mfLEPR.mmh) (Macaca fascicularis); experiment: SPR, mAb captured, 25C

Chain of extracellular domain portion of LEPR protein expressed with a C-terminal human Fc tag (hLEPR.hFc) (human) (chain, as listed by the source limits assumed): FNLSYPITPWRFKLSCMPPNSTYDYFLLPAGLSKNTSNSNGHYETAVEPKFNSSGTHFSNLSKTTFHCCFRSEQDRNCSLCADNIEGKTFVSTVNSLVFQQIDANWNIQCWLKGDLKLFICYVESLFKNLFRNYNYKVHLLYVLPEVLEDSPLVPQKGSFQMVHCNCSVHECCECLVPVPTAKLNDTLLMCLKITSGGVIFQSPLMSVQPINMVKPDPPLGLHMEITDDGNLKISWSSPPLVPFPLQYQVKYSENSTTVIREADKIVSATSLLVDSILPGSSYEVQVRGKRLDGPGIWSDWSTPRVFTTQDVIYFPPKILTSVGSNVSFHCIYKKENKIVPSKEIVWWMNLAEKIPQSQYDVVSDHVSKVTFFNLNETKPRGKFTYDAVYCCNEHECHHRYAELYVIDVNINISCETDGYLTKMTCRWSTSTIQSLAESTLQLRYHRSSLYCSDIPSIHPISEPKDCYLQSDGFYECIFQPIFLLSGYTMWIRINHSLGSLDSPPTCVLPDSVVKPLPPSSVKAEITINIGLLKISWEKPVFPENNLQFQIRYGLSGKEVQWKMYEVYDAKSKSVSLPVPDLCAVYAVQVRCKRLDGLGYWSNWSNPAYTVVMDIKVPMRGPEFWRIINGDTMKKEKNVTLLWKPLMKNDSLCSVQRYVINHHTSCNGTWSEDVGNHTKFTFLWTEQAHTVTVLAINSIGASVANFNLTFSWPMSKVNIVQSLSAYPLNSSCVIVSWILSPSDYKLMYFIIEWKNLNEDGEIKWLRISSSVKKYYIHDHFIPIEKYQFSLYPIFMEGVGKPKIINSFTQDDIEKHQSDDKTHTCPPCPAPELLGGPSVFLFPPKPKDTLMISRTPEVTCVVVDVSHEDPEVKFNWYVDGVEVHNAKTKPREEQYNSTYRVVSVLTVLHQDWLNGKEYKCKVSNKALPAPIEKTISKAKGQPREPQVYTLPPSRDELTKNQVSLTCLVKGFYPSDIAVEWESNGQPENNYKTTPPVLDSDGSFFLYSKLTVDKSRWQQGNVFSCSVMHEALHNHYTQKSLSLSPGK
Chain of Mycx2-hLepR(ecto)-GPI anchored, on HEK293/hLEPR-GPI cells (human) (P48357 22-839): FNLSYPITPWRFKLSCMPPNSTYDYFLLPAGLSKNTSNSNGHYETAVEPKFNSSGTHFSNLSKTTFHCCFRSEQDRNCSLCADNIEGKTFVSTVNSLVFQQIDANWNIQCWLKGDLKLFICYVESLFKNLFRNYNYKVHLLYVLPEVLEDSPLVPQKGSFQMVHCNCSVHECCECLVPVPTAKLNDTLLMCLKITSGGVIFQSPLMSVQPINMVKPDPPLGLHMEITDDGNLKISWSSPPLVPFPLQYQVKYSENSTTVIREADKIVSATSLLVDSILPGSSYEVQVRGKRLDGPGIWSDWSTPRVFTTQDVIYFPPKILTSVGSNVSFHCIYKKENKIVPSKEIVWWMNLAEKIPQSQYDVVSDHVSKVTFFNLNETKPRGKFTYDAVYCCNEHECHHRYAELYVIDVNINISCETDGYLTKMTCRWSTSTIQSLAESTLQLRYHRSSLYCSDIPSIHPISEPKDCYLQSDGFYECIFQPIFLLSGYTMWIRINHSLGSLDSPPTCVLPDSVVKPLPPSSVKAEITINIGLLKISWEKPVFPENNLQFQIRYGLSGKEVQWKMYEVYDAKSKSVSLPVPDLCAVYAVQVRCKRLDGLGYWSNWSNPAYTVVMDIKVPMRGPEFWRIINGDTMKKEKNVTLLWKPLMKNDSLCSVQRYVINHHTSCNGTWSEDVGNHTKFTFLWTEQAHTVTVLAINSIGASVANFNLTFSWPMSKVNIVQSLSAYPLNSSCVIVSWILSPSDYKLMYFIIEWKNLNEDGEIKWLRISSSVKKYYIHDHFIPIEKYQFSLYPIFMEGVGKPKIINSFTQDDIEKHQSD
Chain of human LEPR extracellular domain expressed with a C-terminal myc-myc-hexahistidine tag (hLEPR.mmh) (human) (P48357 other isoform, or with tags, fused parts or gaps): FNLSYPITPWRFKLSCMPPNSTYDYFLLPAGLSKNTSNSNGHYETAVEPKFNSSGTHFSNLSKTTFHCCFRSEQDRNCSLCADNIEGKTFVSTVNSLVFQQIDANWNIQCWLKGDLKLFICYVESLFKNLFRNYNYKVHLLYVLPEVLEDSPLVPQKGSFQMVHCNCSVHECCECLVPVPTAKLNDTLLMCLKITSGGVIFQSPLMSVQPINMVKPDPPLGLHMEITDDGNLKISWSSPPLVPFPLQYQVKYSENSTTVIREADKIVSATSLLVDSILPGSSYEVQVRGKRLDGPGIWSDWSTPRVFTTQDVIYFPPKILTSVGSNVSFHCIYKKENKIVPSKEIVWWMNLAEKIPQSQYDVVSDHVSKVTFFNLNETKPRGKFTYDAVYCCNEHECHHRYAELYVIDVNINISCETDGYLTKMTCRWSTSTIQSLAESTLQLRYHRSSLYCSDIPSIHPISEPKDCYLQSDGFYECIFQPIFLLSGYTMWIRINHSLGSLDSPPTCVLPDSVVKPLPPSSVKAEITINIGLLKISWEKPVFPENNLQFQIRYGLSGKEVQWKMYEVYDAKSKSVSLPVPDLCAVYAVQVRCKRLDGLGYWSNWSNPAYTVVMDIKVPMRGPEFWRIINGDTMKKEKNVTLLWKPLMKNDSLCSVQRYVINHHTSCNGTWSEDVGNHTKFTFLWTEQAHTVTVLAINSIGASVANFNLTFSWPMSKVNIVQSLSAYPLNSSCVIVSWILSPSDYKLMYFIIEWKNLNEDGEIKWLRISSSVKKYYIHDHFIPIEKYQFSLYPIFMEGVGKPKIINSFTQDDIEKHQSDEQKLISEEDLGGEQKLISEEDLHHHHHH
Chain of macaca fascicularis LEPR extracellular domain expressed with a C-terminal myc-myc-hexahistidine tag (mfLEPR.mmh) (Macaca fascicularis) (Q9MYL0 other isoform, or with tags, fused parts or gaps): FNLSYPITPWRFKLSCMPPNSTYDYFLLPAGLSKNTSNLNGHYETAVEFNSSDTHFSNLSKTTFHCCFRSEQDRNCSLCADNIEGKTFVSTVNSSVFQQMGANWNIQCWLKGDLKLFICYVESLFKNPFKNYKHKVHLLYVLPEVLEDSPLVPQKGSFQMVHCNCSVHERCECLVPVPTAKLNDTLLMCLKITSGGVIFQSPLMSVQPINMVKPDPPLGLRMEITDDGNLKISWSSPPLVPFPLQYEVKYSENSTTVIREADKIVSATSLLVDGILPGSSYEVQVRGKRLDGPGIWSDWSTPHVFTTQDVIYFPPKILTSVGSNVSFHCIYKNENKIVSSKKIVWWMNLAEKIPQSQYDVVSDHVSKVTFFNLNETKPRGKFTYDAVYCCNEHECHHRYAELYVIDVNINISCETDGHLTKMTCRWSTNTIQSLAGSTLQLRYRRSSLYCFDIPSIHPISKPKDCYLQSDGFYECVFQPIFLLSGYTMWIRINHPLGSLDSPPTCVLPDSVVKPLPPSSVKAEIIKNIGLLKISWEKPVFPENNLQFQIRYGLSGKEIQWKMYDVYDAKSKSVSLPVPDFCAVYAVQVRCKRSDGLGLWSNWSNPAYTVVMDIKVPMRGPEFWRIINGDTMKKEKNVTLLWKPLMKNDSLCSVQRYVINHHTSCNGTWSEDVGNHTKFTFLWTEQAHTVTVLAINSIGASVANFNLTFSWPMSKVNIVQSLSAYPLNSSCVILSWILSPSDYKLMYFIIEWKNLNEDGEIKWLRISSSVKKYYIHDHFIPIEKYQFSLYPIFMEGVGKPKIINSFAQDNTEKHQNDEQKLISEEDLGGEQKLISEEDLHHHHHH
Chain of human LEPR extracellular domain expressed with a C-terminal mouse IgG2a Fc tag (hLEPR.mFc) (human) (chain, as listed by the source limits assumed): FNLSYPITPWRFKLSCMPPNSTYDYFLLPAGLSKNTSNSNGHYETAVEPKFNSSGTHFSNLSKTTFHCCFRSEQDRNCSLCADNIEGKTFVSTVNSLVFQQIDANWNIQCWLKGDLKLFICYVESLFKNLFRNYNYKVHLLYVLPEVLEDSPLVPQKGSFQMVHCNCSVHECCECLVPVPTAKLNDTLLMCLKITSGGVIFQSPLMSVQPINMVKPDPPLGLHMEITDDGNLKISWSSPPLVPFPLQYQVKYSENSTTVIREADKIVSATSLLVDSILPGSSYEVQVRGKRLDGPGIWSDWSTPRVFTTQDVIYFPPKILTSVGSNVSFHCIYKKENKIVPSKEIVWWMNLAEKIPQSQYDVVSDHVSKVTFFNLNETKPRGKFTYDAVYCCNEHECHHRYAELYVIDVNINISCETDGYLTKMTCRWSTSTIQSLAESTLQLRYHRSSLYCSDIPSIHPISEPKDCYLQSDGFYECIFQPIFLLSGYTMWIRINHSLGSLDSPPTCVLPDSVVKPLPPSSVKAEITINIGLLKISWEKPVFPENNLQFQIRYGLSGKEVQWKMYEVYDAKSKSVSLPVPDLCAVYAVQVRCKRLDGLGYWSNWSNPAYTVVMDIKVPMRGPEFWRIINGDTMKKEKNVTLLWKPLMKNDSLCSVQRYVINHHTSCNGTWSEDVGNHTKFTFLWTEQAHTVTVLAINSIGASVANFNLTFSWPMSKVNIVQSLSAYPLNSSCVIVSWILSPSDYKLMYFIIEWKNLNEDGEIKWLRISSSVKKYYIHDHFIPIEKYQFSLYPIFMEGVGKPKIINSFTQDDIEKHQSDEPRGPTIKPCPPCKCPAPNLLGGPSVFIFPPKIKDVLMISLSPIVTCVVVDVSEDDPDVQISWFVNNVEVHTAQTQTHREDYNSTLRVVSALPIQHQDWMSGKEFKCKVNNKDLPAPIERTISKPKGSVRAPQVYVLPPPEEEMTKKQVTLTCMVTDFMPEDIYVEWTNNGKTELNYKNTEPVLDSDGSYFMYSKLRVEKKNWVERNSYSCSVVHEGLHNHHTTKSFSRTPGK
Chain of human LEPR CRH1 (D1,D2)-MMH (human) (P48357 22-339 limits assumed): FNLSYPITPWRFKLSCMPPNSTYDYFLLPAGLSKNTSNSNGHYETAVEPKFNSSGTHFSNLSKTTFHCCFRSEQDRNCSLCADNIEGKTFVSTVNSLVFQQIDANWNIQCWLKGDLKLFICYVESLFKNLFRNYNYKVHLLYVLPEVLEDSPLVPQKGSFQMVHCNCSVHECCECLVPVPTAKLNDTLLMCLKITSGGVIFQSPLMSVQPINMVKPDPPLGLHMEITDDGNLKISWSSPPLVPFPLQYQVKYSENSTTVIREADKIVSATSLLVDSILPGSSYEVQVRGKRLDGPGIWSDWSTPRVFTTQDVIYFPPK

Row | Luminex MFI [1] [MFI] | Luminex MFI [2] [MFI] | Luminex MFI [3] [MFI] | Luminex MFI [4] [MFI] | Luminex MFI [5] [MFI] | Luminex MFI [6] [MFI] | Luminex MFI [7] [MFI] | Luminex MFI [8] [MFI] | Luminex MFI [9] [MFI] | % blockade [10] [%] | Binding Ratio [11] [fold] | Binding Ratio [12] [fold] | Binding Ratio [13] [fold] | Binding Ratio [14] [fold] | 100 nM hLEPR-mFc Bound (RU) [15] [RU] | 100 nM hLEPR-MMH Bound (RU) [16] [RU] | 100 nM mfLEPR.MMH Bound (RU) [17] [RU] | 100 nM hLEPR-mFc Bound (RU) [18] [RU] | 100 nM hLEPR-MMH Bound (RU) [19] [RU] | 100 nM mfLEPR.MMH Bound (RU) [20] [RU] | Substance
1 | 9400 | 27 | 73 | 19 | -57 | 3910 | 7110 | -14 | 10 | 99 | 2350 | 112 | – | – | – | – | – | – | – | – | Comparator mAb (Fab9F8 described in Fazeli et al. 2006 and Carpenter et al. 2012) (antibody)
2 | – | – | – | – | – | – | – | – | – | -3 | 6 | 4 | 2 | 2 | 1 | 6 | 1 | -2 | 4 | 0 | Isotype Control mAb (antibody)
3 | – | – | – | – | – | – | – | – | – | 32 | – | – | – | – | – | – | – | – | – | – | Mouse IgG2a Isotype control (antibody)
